Data: the RNAGym collection of RNA variant scans (doi:10.7554/elife.80360)

B1: Hammerhead Ribozyme (parent)
chain: ACCGGAUGUGCUUUCCGGUCUGAUGAGUCCGUGAGGACGAAACAG

Variants of: B1
Assay: self-cleavage, relative activity (ratio to wild type); higher = more cleavage; co-transcriptional

Row | Variant | self-cleavage
1 | G25A C29G | 0.347
2 | C29U U32C | 0.843
3 | C29U U32A | 0.902
4 | G5A U21G | 0.378
5 | G5A U21C | 0.977
6 | C20G U24G | 0.353
7 | C2U A34C | 0.933
8 | U9C A41U | 0.34
9 | G22A G35C | 0.294
10 | U7G U14A | 1.46
11 | G31U G33A | 0.708
12 | U21A G31A | 0.634
13 | C3A A23G | 0.296
14 | U19A | 0.391
15 | G8A C11G | 1.18
16 | U12C C20U | 0.395
17 | U28G C30U | 0.83
18 | U21G A40G | 0.345
19 | C2A G33U | 0.858
20 | G33C A37U | 0.565
21 | C15U G33U | 1.02

Row | Variant | self-cleavage
22 | U14A A37G | 0.811
23 | G35C A42C | 0.283
24 | G10A C20U | 0.543
25 | U9A U21G | 0.58
26 | U13C G36U | 0.598
27 | C11G G18A | 0.553
28 | U9A G33A | 0.92
29 | G25A G31C | 0.326
30 | C16A A23C | 0.32
31 | G27C G39U | 0.31
32 | G22C A44C | 0.369
33 | A1C C15A | 0.497
34 | C2G U28C | 0.262
35 | G17C U32C | 0.444
36 | U7G G8U | 1.36
37 | G18A A41U | 0.358
38 | C3U U28C | 0.854
39 | U9G G45C | 0.462
40 | U21G C29U | 0.471
41 | C16A A40U | 0.284
42 | G4C A42C | 0.296

Row | Variant | self-cleavage
43 | G33U C38G | 0.67
44 | U21A G27C | 0.296
45 | U14A A42C | 0.296
46 | U21C A26C | 0.404
47 | C20A G22U | 0.341
48 | A1C G33U | 0.561
49 | U7A G27C | 0.449
50 | U14G U32G | 1.01
51 | G4C C20U | 0.441
52 | A1G A42G | 0.344
53 | G8A U9A | 0.863
54 | U14A | 0.954
55 | G10U G35C | 0.685
56 | G17C G35U | 0.371
57 | C3A G39A | 0.277
58 | C11A U14A | 0.829
59 | G17A G35A | 0.623
60 | U14A U24C | 1.2
61 | U32A G35C | 0.796
62 | G8U G10U | 1.04
63 | C11U G33A | 0.95

Row | Variant | self-cleavage
64 | G10A U14A | 1.21
65 | U24C C43U | 0.404
66 | U13C A44U | 0.923
67 | G27C C29G | 0.279
68 | U14C G39C | 0.337
69 | C11A C15U | 1.01
70 | U7C G45A | 0.653
71 | G5A A26U | 0.66
72 | A1C G4U | 0.353
73 | C20U A40G | 0.41
74 | A6G U7G | 1.35
75 | G22U A37G | 0.417
76 | G10C G27U | 0.555
77 | U13G A26G | 0.301
78 | G25C A41G | 0.359
79 | U9A G31C | 1.18
80 | G27U G35A | 0.334
81 | U9A G25C | 0.311
82 | A6C G22U | 0.39
83 | A26U A37G | 0.736
84 | U12A G35C | 0.653
